This assay deals with human ST2.Fc (extracellular domain of ST2 fused to Fc) (human) (UniProt Q01638).
Chain of UniProt Q01638 (Q01638 19-328): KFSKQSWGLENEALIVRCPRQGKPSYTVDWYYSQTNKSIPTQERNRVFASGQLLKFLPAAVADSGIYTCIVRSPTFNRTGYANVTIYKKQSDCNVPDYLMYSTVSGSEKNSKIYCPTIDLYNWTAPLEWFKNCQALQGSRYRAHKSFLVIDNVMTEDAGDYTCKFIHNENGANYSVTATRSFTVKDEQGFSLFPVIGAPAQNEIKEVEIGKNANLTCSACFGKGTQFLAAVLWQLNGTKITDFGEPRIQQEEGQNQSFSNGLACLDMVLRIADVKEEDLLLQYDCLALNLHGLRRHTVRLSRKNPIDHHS

Molecule “human IL-33 (amino acids 112-270), reduced form (from UniProt O95760 112-270) (ligand)” had an EC50 in a short duration signalling assay (NFκB p65/RelA translocation in HUVEC) of 0.15 nM.

B1: human IL-33 (112-270) complete Cys→Ser mutant (C208S, C227S, C232S and C259S) (ligand)
chain: SITGISPITEYLASLSTYNDQSITFALEDESYEIYVEDLKKDEKKDKVLLSYYESQHPSNESGDGVDGKMLMVTLSPTKDFWLHANNKEHSVELHKSEKPLPDQAFFVLHNMHSNSVSFESKTDPGVFIGVKDNHLALIKVDSSENLSTENILFKLSET
On to B1, for which the EC50 in a short duration signalling assay (NFκB p65/RelA translocation in HUVEC) was 0.15 nM.

(Values after publication PMC4579851.)
